Target: Fbw7α (UniProt Q969H0)
Assay: anti-HA co-IP, anti-FLAG blot
Conditions: reference: wild-type HA-SV40 LT; sites T701

## SV40 LT (from UniProt P03070) HA-SV40 LT T701A
  binding against the reference: lost

From article PMC6366716
